Measured values published in the RNAGym collection of RNA variant scans (doi:10.7554/elife.90254).

B1: OR4K15 (parent)
chain: GUUAACGGUCAUAGGCCAUGGAAACUAGGAGCACCAUUUCGCUGCCAGUGAAGAAAUGAACAAAGAAAAUCUGGGCCAGGCAGGCAUCAAAAGAAAUAGUCUUGCGCUCAACCAGAAAGUCUGUAAUCAUUUUAAGGGUA

Variants of: B1
Assay: self-cleavage, relative activity (ratio to wild type); higher = more cleavage; in vitro, sequencing; the parent is a self-cleaving ribozyme

Variant | self-cleavage
GUUAACGGUCAUAGGCCAUGGAAACUAGGAGCACCAUUUCGCUGCCAGUGAAGAAAUGAACAAAGAGAAUCUGGGCCAGGCAGGCAUCAAAAGAAAUAGUCUUGCGCUCAACCAGAAAGUCUGCAAUCAUUUUAAGGGUA | 0.87
GUUAACGAUCAUAGGCCAUGGAAACUAGGAGCACCAUUUCGCUGCCAGUGAAGAAAUGAGCAAAGAAAAUCUGGGCCAGGCAGGCAUCAAAAGAAAUAGUCUUGCGCUCAACCAGAAAGUCUGUAAUCAUUUUAAGGGUA | 1.53
GUUAACGGUCAUGGGCCAUGGAAACUAGGAGCACCAUUUCGCUGCCGGUGAAGAAAUGAACAAAGAAAAUCUGGGCCAGGCAGGCAUCAAAAGAAAUAGUCUUGCGCUCAACCAGAAAGUCUGUAAUCAUUUUAAGGGUA | 0.13
GUUAACGGUCAUAGGCCAUGGAAACUAGGAGCACCAUUUCGCUGCCAGUGAAGAAAUGAACAAAGAAAAUCUGGGCCAGGCAGGCAUCAAAAGAAAUAGUCUUGCGCUCAACCAGAAAGCCUGUAUUCAUUUUAAGGGUA | 0.57
GUUAACGGUCAUAGGCCAUGGAAACUAGGAGCACCAUCUCGCUGCCAGUGAAGAAAUGAACAAAGAAAAUCUGGGCCAGGCAGGCAUCAAAAGAAAUAGUCUGGCGCUCAACCAGAAAGUCUGUAAUCAUUUUAAGGGUA | 0.03
GUUAACGGUCAUAGGCCCUGGGAACUAGGAGCACCAUUUCGCUGCCAGUGAAGAAAUGAACAAAGAAAAUCUGGGCCAGGCAGGCAUCAAAAGAAAUAGUCUUGCGCUCAACCAGAAAGUCUGUAAUCAUUUUAAGGGUA | 1.85
GUUAACGGUCAUAGGCCAUGGAAACUAGGAGCACCAUUUCGCUGCCAGUGAAGAAAUGAACAAAGAGAAUCUGGGCUAGGCAGGCAUCAAAAGAAAUAGUCUUGCGCUCAACCAGAAAGUCUGUAAUCAUUUUAAGGGUA | 1.03
GUUAACGGUCUUAGGCCAUGGAAACUAGGGGCACCAUUUCGCUGCCAGUGAAGAAAUGAACAAAGAAAAUCUGGGCCAGGCAGGCAUCAAAAGAAAUAGUCUUGCGCUCAACCAGAAAGUCUGUAAUCAUUUUAAGGGUA | 1.23
GUUAACGGUCAUAGGCCAUGGAAACUAGGAGCACCAUUUCGCUGCCAGUGAAGAAAUGAACAAAGUAAAUCUGGGCCAGGCAGGCAUCAAAAGAAAUAGUCUUGCGCUCAACCAGAGAGUCUGUAAUCAUUUUAAGGGUA | 1.44
GUUAAAGGUCAUAGGCCAUGGAAACUAGGAGCACCAUUUCGCUGCCAGUGAAGAAAUGAACAAGGAAAAUCUGGGCCAGGCAGGCAUCAAAAGAAAUAGUCUUGCGCUCAACCAGAAAGUCUGUAAUCAUUUUAAGGGUA | 1.24
GUUAACGGUCAUAGGCCAUGGAAACUAGGAGCACCAUUUCGCUGCCAGUGAAGAAAUGAACAAAGAAAAUCUGGGCCAGGCAGGCAUCAAAAGGAAUAGUCUUGCGCUCAACUAGAAAGUCUGUAAUCAUUUUAAGGGUA | 0.03
GUUAACGGUCAUAGGCCAUGGAAACUAGGAGCACCAUUUCGCUGCCAGUGAAGAACUGAACAAAGAAAAUCUGGGCCAGGCAGGCAUCAAAAGAAAUAGUCUUGCGCUCAACCAGUAAGUCUGUAAUCAUUUUAAGGGUA | 0.13
GUUAACGGUCAUAGGCCGUGGAAACUAGGAGCACCAUUUUGCUGCCAGUGAAGAAAUGAACAAAGAAAAUCUGGGCCAGGCAGGCAUCAAAAGAAAUAGUCUUGCGCUCAACCAGAAAGUCUGUAAUCAUUUUAAGGGUA | 1.66
GUUAACGGUCAUAGGCCAUGGAAACUAGGUGCACCAUUUCGCUGCCAGUGAAGAAAUGAACAAAGAAAAUCUGGGCCAGGCAGGCAUCAAAAGAAAUAGUCUUGCGCUCAACCAAAAAGUCUGUAAUCAUUUUAAGGGUA | 0.22
GUUAACGGUCAUAGGCCAUGGAAACUAGGAGCACCAUUUCGCUGCCAGUGAAGAAAUGAACGAAGAAAAUCUGGGGCAGGCAGGCAUCAAAAGAAAUAGUCUUGCGCUCAACCAGAAAGUCUGUAAUCAUUUUAAGGGUA | 0.06
GUUGACGGUCAUAGGCCAUGGAAACUAGGAGCACCAUUUCGCUGCCAGUGAAGAAAUGAACAAAGAAAGUCUGGGCCAGGCAGGCAUCAAAAGAAAUAGUCUUGCGCUCAACCAGAAAGUCUGUAAUCAUUUUAAGGGUA | 1.31
GUUAACGGUCAUAGGCCAUGGAAACUAGGAGCACCAUUUCGCUGCCAGUGAAGAAAUGAACAAAGAAAAUCUGGGCCAGGCCGGCAUCAAAAGAAAUAGUCUUGCGCUCAACCAGAAAAUCUGUAAUCAUUUUAAGGGUA | 0.17
GUUAACGGUCAUAGGCCAUGGAAACUAGGAGCACCAUUUCGCUGCCAGUGAAGAAGUGAACAAAGAAAAUCUGGGCCAAGCAGGCAUCAAAAGAAAUAGUCUUGCGCUCAACCAGAAAGUCUGUAAUCAUUUUAAGGGUA | 0.1
GUUGACGGUCAUAGGCCAUGGAAACUAGGAGCACCAUUUCGCAGCCAGUGAAGAAAUGAACAAAGAAAAUCUGGGCCAGGCAGGCAUCAAAAGAAAUAGUCUUGCGCUCAACCAGAAAGUCUGUAAUCAUUUUAAGGGUA | 1.26
GUUAACGGUCAUAGGCCAUGGAAACUAGGAGCACCAUUUCGCUGCCAGUGAAGAGAUGAACAAAGAAAAUCUGGGCCAGGCAGGCAUCAAAAGAAAUAGUCUUGCGCUCAACCAUAAAGUCUGUAAUCAUUUUAAGGGUA | 0.03
GUUAACGGUCAUAGGCCAUGGAAACUAGGUGCACCAUUUCGCUGCCAGUGAAGCAAUGAACAAAGAAAAUCUGGGCCAGGCAGGCAUCAAAAGAAAUAGUCUUGCGCUCAACCAGAAAGUCUGUAAUCAUUUUAAGGGUA | 1.77
